From US20240018226A1

Biological target: pHrodo-labeled 4RON human tau P301L soluble oligomer (human), P10636
Assay: cell-based or functional assay

Sequence of pHrodo-labeled 4RON human tau P301L soluble oligomer (human), P10636 (P10636 other isoform, or with tags, fused parts or gaps P301L P301L): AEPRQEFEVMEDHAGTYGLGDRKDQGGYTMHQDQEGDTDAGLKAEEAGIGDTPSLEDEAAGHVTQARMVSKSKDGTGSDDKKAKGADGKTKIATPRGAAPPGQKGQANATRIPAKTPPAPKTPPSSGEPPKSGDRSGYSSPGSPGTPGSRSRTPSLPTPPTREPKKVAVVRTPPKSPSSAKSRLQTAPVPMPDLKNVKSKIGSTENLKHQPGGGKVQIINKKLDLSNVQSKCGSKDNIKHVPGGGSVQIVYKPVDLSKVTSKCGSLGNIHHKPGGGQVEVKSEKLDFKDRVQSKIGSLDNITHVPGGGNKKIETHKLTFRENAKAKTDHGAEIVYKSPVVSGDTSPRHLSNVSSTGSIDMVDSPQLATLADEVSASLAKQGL

- IC50 of inhibition of tau internalization into B103 neuroblastoma cells (pHrodo Texas Red mean fluorescence intensity, FACS): 9 nM
B1: mouse 3D6 (antibody, V domains shown)
VH: EVQLQQSGADLVRPGALVKLSCKASGFNIKDYYLHWVRQRPEQGLEWIGWIDPENGDTVYDPKFQGKATITADTSSNTAYLQLGSLTSEDTAVYFCSTLDFWGQGTTLTVSS
VL: not shown
modifications: here or on the partner: labeled with pHrodo Red succinimidyl ester (sites not given)
